Two molecules from patent US20160237160A1 (Bayer, published 2016) can be followed below.

The target of test [1] is T1, TPP-2203 (TWEAKR-ECD-34-68-hIgGFc-His) (human).
T1 construct: dimeric; also called TWEAKR(34-68)-Fc fusion protein; truncated ectodomain 34-68
Put plainly: ELISA, TPP-2203 coated at 1 µg/ml, biotinylated IgG at 0.08 µg/ml (open bar) and 0.3 µg/ml (filled bar), Streptavidin-HRP, Amplex Red.
Method: (§1) Detection was done with Streptavidin-HRP and Amplex-Red substrate.
(§2) To analyze for binding, 1 μg/ml of the respective dimeric TWEAKR-Fc construct were coated and, 0.3 μg/ml and 0.08 μg/ml of biotinylated IgG were used as soluble binding partner. Detection was done with Streptavidin-HRP and Amplex-Red substrate.

In test [2] the target is T2, TPP-2614 (TweakR-ECD-34-68-hIgGFc-His-D47A) (human).
T2 construct: also called D47A TWEAKR mutein
Put plainly: ELISA, IgG coated 1 ug/ml, TWEAKR variant 250 ng/ml, anti-HIS HRP (FIG. 6C).
Method: (§3) Antibodies were coated (1 μg/ml), TWEAKR variant was added at 250 ng/ml, detection via anti-HIS HRP. […] Antibodies were coated (1 μg/ml), TWEAKR variant was added 250 ng/ml, detection via anti-HIS HRP.

The target in test [3] is T3, TPP-1984 (hTNFRSF12Aaa28-68-CT-His) (human).
T3 construct: monomeric ectodomain with HIS6 tag; also called TWEAKR(28-68)-HIS; C-terminally truncated TWEAKR ectodomain
T3 chain: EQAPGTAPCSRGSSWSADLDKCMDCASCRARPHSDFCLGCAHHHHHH
Put plainly: ELISA, TPP-1984 coated at 1 µg/ml, biotinylated IgG at 0.08 µg/ml (open bar) and 0.3 µg/ml (filled bar), Streptavidin-HRP, Amplex Red.
Method: as §1, §2

For test [4], the target named is T4, Apo-3 (TNFRSF25) Fc fusion protein (Human, UniProt Q93038 25-199).
T4 construct: extracellular domain; bought
T4 sequence (looked up): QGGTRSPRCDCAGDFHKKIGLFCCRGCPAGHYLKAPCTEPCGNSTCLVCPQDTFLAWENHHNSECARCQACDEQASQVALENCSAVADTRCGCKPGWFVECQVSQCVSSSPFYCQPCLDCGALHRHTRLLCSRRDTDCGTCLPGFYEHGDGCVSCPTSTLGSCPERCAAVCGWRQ
Put plainly: ELISA, Fc fusion protein coated at 1 µg/ml, TPP-2090 at 75 nM, Amplex Red.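 Note: binding reported as ELISA signal intensity in Rfu against a panel of TNF receptor superfamily members presented as Fc fusion proteins.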
From the text: (§4) Shown is the result of an ELISA: Y is “ELISA signal intensity [Rfu]”; X are “TNF receptor superfamily proteins tested (Fc-fusion proteins)”: 1 is “TWEAKR”; 2 is “TWEAKR”; 3 is “Apo-3”; 4 is “Trail-R1”; 5 is “Trail-R2”; 6 is “CD385”; 7 is “CD95”; 8 is “Rank”; 9 is “TNF-R1”; 10 is “TNF-R2”; 11 is “BAFF-R”; 12 is “DcR3”; 13 is “BCMA”; 14 is “TACI”; 15 is “OX40”; 16 is “CD30”; 17 is “CD27”; 18 is “CD40”; 19 is “Osteoprotegerin”; 20 is “EDAR”; 21 is “GITR”; 22 is “HVEM”; 23 is “NGF R”; 24 is “Trail R3”; 25 is “Lymphotioxin B R”; 26 is “Trail R4”; 27 is “EDA2R”; 28 is “TROY”; 29 is “RELT”; 30 is “4-1BB”.
(§5) To collect dose-response data a serial 3fold dilution of biotinylated IgG starting with a concentration of 2 μM was used as soluble binding partner. Detection was done with anti-hIgG1-HRP and Amplex Red.

Test [5] concerns the target T5, TACI (TNFRSF13B) Fc fusion protein (Human, UniProt O14836 1-165).
T5 construct: extracellular domain; bought
T5 sequence (looked up): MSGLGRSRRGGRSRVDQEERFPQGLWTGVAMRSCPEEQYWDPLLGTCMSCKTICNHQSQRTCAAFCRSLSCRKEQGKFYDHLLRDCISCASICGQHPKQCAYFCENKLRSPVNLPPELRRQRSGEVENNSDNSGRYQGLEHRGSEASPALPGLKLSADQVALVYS
Described as above.
From the text: as §4, §5

The target of test [6] is T6, TNF-R2 (TNFRSF1B) Fc fusion protein (Human, UniProt P20333 23-257).
T6 construct: extracellular domain; bought
T6 sequence (looked up): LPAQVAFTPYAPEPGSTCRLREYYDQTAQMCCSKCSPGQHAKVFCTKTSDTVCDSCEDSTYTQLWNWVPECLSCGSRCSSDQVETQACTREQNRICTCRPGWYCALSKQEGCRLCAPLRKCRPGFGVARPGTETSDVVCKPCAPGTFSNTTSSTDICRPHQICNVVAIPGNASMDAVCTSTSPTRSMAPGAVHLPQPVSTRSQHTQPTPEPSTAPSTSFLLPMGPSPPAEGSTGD
The test is described as above.
From the text: as §4, §5

Test [7] concerns the target T7, Lymphotioxin β R Fc fusion protein (Human, UniProt P36941 31-227).
T7 construct: extracellular domain; bought; also called Lymphotioxin B R
Described as above.
From the text: as §4, §5

The target in test [8] is T2, TPP-2614 …. Put plainly: ELISA, antibody coated at 1 µg/ml, TWEAKR variant at 250 ng/ml, anti-HIS HRP; normalized by WT; the legend of B does not name the variant, D47A by paragraph 82 and paragraph 368.
Method: as §3
For test [9], the target named is TWEAKR (TNFRSF12A, FN14), human, on tumor cell lines (human, UniProt Q9NP84 28-129). Put plainly: cell-based or functional assay.
The target of test [10] is T8, TPP-599 (HUMAN-TNFRSF12Aaa28-80-hIgG1-Fc) (human).
T8 construct: dimeric; also called human TWEAKR Fc; TWEAKR-Fc
Briefly: ELISA, TWEAKR-Fc coated 62 ng/ml, biotin-IgG titrated; + means IC50 1 to 150 pM.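 Note: biotinylated IgG binding to immobilized TWEAKR-Fc muteins, detected with Streptavidin-HRP and Amplex Red, IC50 derived from fitted dose-response curves of twofold serial dilutions.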
Method: To collect dose-response data, the different TWEAKR-Fc muteins were coated with a low concentration (62 ng/ml) in a 384-well Maxisorb ELISA plate and a serial 2fold dilution of biotinylated IgG starting with a concentration of 100 nM was used as soluble binding partner. Detection was done with Streptavidin-HRP and Amplex Red.
The dose-response data were fitted and IC50s determined.

Test [11] addresses T9, TPP-2607 (TweakR-ECD-34-68-hIgGFc-His-S37A) (human).
T9 construct: used as HEK293 supernatant
Put plainly: ELISA, IgG coated 1 ug/ml, HEK293 supernatant titrated.
Method: (§6) These TWEAKR(34-68)-Fc muteins were expressed in HEK293 cells. To collect dose-response data, IgGs were coated at a concentration of 1 μg/ml in a 384-well Maxisorp ELISA plate and a serial 2fold dilution of the TWEAKR mutein containing supernatant was used as soluble binding partner. Detection was done with anti-HIS-HRP and Amplex Red.

The target of test [12] is T10, TPP-2617 (TweakR-ECD-34-68-hIgGFc-His-S54A) (human).
T10 construct: used as HEK293 supernatant
Described as above.
Method: as §6

In test [13] the target is T11, TPP-2612 (TweakR-ECD-34-68-hIgGFc-His-S43A) (human).
T11 construct: used as HEK293 supernatant
The description is as above.
Method: as §6

The target in test [14] is T12, TPP-2621 (TweakR-ECD-34-68-hIgGFc-His-H60A) (human).
T12 construct: used as HEK293 supernatant
The test is described as above.
Method: as §6

For test [15], the target named is T13, TPP-2613 (TweakR-ECD-34-68-hIgGFc-His-D45A) (human).
T13 construct: used as HEK293 supernatant
The description is as above.
Method: as §6

The target of test [16] is TPP-2610 (TweakR-ECD-34-68-hIgGFc-His-S41A) (human). Described as above.
Method: as §6
Test [17] concerns the target T14, TPP-2615 (TweakR-ECD-34-68-hIgGFc-His-K48A) (human).
T14 construct: used as HEK293 supernatant
Described as above.
Method: as §6

In test [18] the target is T15, TPP-2619 (TweakR-ECD-34-68-hIgGFc-His-R58A) (human).
T15 construct: used as HEK293 supernatant
The description is as above.
Method: as §6

Test [19] addresses T16, TPP-2623 (TweakR-ECD-34-68-hIgGFc-His-D62A) (human).
T16 construct: used as HEK293 supernatant
The description is as above.
Method: as §6

T7 sequence (P36941 31-227): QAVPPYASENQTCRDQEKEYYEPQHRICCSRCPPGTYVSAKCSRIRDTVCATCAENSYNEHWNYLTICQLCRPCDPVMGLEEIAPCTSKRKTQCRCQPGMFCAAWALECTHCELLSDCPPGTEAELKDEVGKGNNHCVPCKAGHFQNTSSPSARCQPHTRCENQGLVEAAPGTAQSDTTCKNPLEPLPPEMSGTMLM

B1: TPP-2090 (antibody, human IgG1, kappa, V domains shown)
VH: EVQLLESGGGLVQPGGSLRLSCAASGFTFSPYPMIWVRQAPGKGLEWVSYISPSGGSTHYADSVKGRFTISRDNSKNTLYLQMNSLRAEDTAVYYCARGGDTYFDYFDYWGQGTLVTVSS
VL: DIQMTQSPSSLSASVGDRVTITCRASQSISGYLNWYQQKPGKAPKLLIYQASSLQSGVPSRFSGSGSGTDFTLTISSLQPEDFATYYCQQSYTSPFITFGQGTKVEIKR
notes: Human IgG1
For B1, the binding result in test [1] is listed as “binds”; in test [3], “binds”; in test [4] it was “no binding (tested: 75 nM)”; in [5], “no binding (tested: 75 nM)”; in test [6] it was “no binding (tested: 75 nM)”; in [7], “no binding (tested: 75 nM)”. Also, the binding result in [8] is on record as “no binding (tested: 250 ng/ml (TWEAKR variant))”. Also, in test [2], the “% binding normalized by wt binding signal” value is < 5%.

B2: P4A8(TPP-1324) (antibody, human IgG1, kappa, V domains shown)
VH: QVQLVQSGAEVKKPGASVKVSCKGSGYTFTDYGMHWVRQAPGQGLEWMGVISTYNGYTNYNQKFKGRVTMTVDKSTSTAYMELRSLRSDDTAVYYCARAYYGNLYYAMDYWGQGTLVTVSS
VL: DIVLTQSPASLAVSLGQRATISCRASKSVSTSSYSYMHWYQQKPGQPPKLLIKYASNLESGVPARFSGSGSGTDFSLNIHPMEEDDTAMYFCQHSRELPFTFGGGTKLEIKR
notes: Human IgG1; variable domains from WO2009/140177 with constant region added
Turning to B2, the “Fold induction of Caspase 3/7, 786-O cells, 100 ug/ml” value in test [9] was found to be 1.1 fold. Also, the “Fold induction of Caspase 3/7, A253 cells, 100 ug/ml” value in [9] is 1.38 fold. In test [9], the “Fold induction of Caspase 3/7, HT-29 cells, 100 ug/ml” value amounted to 1.49 fold. Further, the “Fold induction of Caspase 3/7, NCI-H322 cells, 100 ug/ml” value in [9] worked out at 1.02 fold. For the same molecule, the “Fold induction of Caspase 3/7, WiDr cells, 100 ug/ml” value in test [9] came out at 1.12 fold. Besides, the binding result in test [10] is reported as “binds”; in [11], “no binding”; in test [12], “no binding”; in test [13], “no binding”; in test [14], “no binding”; in [15] it was “no binding”. Further, the binding result in test [16], in test [17], in [18] and in test [19] was “no binding” in each case.
